Data on five molecules can be found in US20240069033A1, “METHOD FOR SCREENING FOR CANDIDATE MOLECULE CAPABLE OF FORMING COMPLEX IN CONJUNCTION WITH PLURALITY OF TARGET MOLECULES” (Chugai Seiyaku Kabushiki Kaisha, priority 2020, published 2024).

Assay [1] deals with anti-ubiquitin antibody fixed bead. Put plainly: Complementation assay of splitUbiquitin with Kpep/Epep charged peptides using mRNA display. The class given is binding. Conditions: for Recovered nucleic acid amount (molecules): Display molecules 0.2 μM each (pairs) or 0.4 μM (alone), anti-ubiquitin antibody beads, qPCR; for Recovery rate (%): apparent recovery rate corrected with display efficiency; for Apparent recovery rate (%): recovered/input nucleic acid amount. As to the method:
Next, Display molecules composed of constructs (SEQ ID NO: 55 (P-11) to SEQ ID NO: 57 (P-13)) in which splitUb(N) and splitUb(C) each were added with a charged peptide sequence (K-peptide containing an amino acid having a positive charge) (sometimes referred to as “Kpep”) or E-peptide containing an amino acid having a negative charge (“Epep”)) were prepared. When the added peptides are attracted to each other by charges, splitUbs become in proximity to each other and recovered by an anti-ubiquitin antibody. Conversely, when the added peptides are repelled to each other by charges, splitUbs are not recovered. Once this is validated, the complexation of molecules added to splitUbs can be evaluated with the recovery rate through ubiquitin and anti-ubiquitin antibodies.
Reactions were made under the same conditions as in condition 1, except that, in condition 2, the Display molecule of Epep-splitUb(N) and the Display molecule of Epep-splitUb(C) were added at 0.2 μM; in condition 3, the Display molecule of Kpep-splitUb(N) was added at 0.4 μM; in condition 4, the Display molecule of Epep-splitUb(N) was added at 0.4 μM; and in condition 5, the Display molecule of Epep-splitUb(C) was added at 0.4 μM.

The nature of assay [2]: Complementation assay of splitSNAP-tag using mRNA display (reaction with SNAP-Biotin, streptavidin pull-down, qPCR). It is filed as biochemical. Conditions: for Recovery rate (%): apparent recovery rate corrected with display efficiency; for Recovered nucleic acid amount (molecules): reaction with SNAP-Biotin 37° C. 30 minutes, streptavidin pull-down, qPCR; for Apparent recovery rate (%): recovered / theoretical value of added nucleic acid amount. As to the method: To this solution, ¼ amount of a PBS solution containing 5 mM DTT, 2500 nM SNAP-Biotin (New England BioLabs, Inc.) was added, and the enzymatic reaction was performed at 37° C. for 30 minutes.

B1: Kpep-splitUb (N): mRNA Display molecule of splitUb(N) with positively charged K-peptide (SEQ ID NO: 55) (conjugate)
chain: MKVSALKENVSALKEKVSALTEKVSALKEKVSALKEGSGSGSGSMQIFVKTLTGKTATLEVEPSDTIENVKAKIQDKEGIPGSGSGSGSKK
modifications: mRNA display linkage; Kpep-splitUb(N)-GS4
For B1, in assay [1], the “Recovered nucleic acid amount (molecules)” value turned out to be 2.28E+06 molecules, the “Recovery rate (%)” value worked out at 0.0008% and the “Apparent recovery rate (%)” value worked out at 0.0005%.

B2: SNAP(full): mRNA Display molecule of full-length SNAP tag with C-terminal GS linker (SEQ ID NO: 44) (conjugate)
chain: MDKDCEMKRTTLDSPLGKLELSGCEQGLHRIIFLGKGTSAADAVEVPAPAAVLGGPEPLMQATAWLNAYFHQPEAIEEFPVPALHHPVFQQESFTRQVLWKLLKVVKFGEVISYSHLAALAGNPAATAAVKTALSGNPVPILIPCHRVVQGDLDVGGYEGGLAVKEWLLAHEGHRLGKPGLGPAGGSAFKLEVNGSGSGSGSGSKK
modifications: mRNA display linkage; SNAP (full)-GS5
Regarding B2, in assay [2], the “Recovery rate (%)” value is 14.364%, the “Recovered nucleic acid amount (molecules)” value is 4.78E+09 molecules and the “Apparent recovery rate (%)” value is 4.740%. Moreover, the “recovery rate higher than other controls” value in assay [2] (in the presence of SNAP-Biotin) is reported as “at least 50 times”.

B3: SNAP(C): mRNA Display molecule of SNAP tag C-terminal fragment with C-terminal GS linker (SEQ ID NO: 43) (conjugate)
chain: MVDESFTRQVLWKLLKVVKFGEVISYSHLAALAGNPAATAAVKTALSGNPVPILIPCHRVVQGDLDVGGYEGGLAVKEWLLAHEGHRLGKPGLGPAGGSAFKLEVNGSGSGSGSGSKK
modifications: mRNA display linkage; SNAP (C)-GS5
B3: in assay [2], the “Recovery rate (%)” value is listed as 0.035%, the “Recovered nucleic acid amount (molecules)” value was 6.76E+06 molecules and the “Apparent recovery rate (%)” value turned out to be 0.007%.

B4: SNAP(N): mRNA Display molecule of SNAP tag N-terminal fragment with C-terminal GS linker (SEQ ID NO: 42) (conjugate)
chain: MDKDCEMKRTTLDSPLGKLELSGCEQGLHRIIFLGKGTSAADAVEVPAPAAVLGGPEPLMQATAWLNAYFHQPEAIEEFPVPALHHPVFQQGSGSGSGSGSKK
modifications: mRNA display linkage; splitSNAP (N)-GS5
In the case of B4, in assay [2], the “Recovery rate (%)” value was 0.097%, the “Recovered nucleic acid amount (molecules)” value is on record as 6.26E+07 molecules and the “Apparent recovery rate (%)” value came out at 0.062%.

B5: Epep-splitUb (N): mRNA Display molecule of splitUb(N) with negatively charged E-peptide (SEQ ID NO: 56) (conjugate)
chain: MKVSALENEVSALEKEVSVLEKEVSALEKEVRALEKGSGSGSGSMQIFVKTLTGKTATLEVEPSDTIENVKAKIQDKEGIPGSGSGSGSKK
modifications: mRNA display linkage; Epep-splitUb(N)-GS4
For B5, in assay [1], the “Recovered nucleic acid amount (molecules)” value was found to be 3.77E+05 molecules, the “Recovery rate (%)” value was 0.0004% and the “Apparent recovery rate (%)” value is 0.0001%.
